Assay results taken from patent publication US20240116985A1 (published 2024).
Starred links: 1 amine or outer side, 2 acyl side, 3 side chain; linkers in the order of their positions; H or OH if unused. Positions of bridges follow the written chain, without caps; N, C: chain ends. Non-standard residues stand in square brackets, D forms with d. Primed or numbered codes have the meaning given here. B5(4) = 2,2-bis(4-pentenyl)glycine = 2-amino-2-(pent-4-en-1-yl)hept-6-enoic acid (stitching residue), C=CCCCC(CCCC=C)(N[*:1])C(=O)[*:2]; PyrS2 = (S)-3-amino-1-((pent-4-en-1-yloxy)carbonyl)pyrrolidine-3-carboxylic acid, C=CCCCOC(=O)N1CC[C@@](N[*:1])(C(=O)[*:2])C1; B5(19) = 2-amino-2-(pent-4-en-1-yl)hept-6-enoic acid (bis(4-pentenyl)glycine), C=CCCCC(CCCC=C)(N[*:1])C(=O)[*:2]; Phe(2-Cl) = N[C@@H](Cc1ccccc1Cl)C(=O)O; Bta = N[C@@H](Cc1csc2ccccc12)C(=O)O; αAllylPro = C=CC[C@@]1(C(=O)O)CCCN1

Legend:
[1] = molecular target: T1, full-length beta-Catenin (Uniprot ID P35222) (Homo sapiens (Human), UniProt P35222 2-781); assay: fluorescence polarization competition; full-length beta-catenin, competitor 5FAM-TCF4 10-53 probe
T1 construct: Given as 'full-length beta-Catenin (Uniprot ID P35222)' in the fluorescence polarization protocol; also called bCat; B-Catenin
T1 sequence: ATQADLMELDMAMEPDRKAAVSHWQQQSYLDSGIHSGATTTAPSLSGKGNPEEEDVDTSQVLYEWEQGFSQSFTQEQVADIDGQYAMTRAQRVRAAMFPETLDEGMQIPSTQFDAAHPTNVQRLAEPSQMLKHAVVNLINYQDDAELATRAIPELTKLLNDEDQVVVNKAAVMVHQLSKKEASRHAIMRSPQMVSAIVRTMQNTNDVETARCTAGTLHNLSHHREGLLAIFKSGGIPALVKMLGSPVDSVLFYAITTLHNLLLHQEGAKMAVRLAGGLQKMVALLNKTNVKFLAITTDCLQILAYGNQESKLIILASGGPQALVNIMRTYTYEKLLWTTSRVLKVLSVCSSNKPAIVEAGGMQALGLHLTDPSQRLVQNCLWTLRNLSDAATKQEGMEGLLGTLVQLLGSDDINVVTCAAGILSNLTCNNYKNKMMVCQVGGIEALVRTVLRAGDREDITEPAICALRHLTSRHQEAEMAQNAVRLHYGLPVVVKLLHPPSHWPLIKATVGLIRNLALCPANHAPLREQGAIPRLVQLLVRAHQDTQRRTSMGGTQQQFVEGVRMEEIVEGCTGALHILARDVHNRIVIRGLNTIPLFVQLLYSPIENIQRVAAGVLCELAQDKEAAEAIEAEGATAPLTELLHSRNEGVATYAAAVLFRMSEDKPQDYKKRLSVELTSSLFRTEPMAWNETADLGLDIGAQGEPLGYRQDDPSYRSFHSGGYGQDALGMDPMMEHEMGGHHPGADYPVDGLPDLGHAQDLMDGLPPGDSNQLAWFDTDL
Procedure: The plate was incubated protected from light for 60 minutes at 20° C. prior to read. Reads were performed on a CLARIOstar plate reader (BMG Labtech) in duplicate, and data were fitted to a 1:1 binding model with hill slope using an in-house script. All provided concentrations are final concentrations.

[2] = molecular target: T2, B-cat-Halo (beta-catenin HaloTag construct expressed in HEK293 cells) (UniProt P35222 1-781, HaloTag NanoBRET 618 Ligand bound in the assay); assay: NanoBRET Abs IC50 in HEK293 cells; B-cat-Halo with competitor TCF4-Luc
T2 construct: Transfected NanoBRET construct; not shown: HaloTag
T2 sequence (looked up): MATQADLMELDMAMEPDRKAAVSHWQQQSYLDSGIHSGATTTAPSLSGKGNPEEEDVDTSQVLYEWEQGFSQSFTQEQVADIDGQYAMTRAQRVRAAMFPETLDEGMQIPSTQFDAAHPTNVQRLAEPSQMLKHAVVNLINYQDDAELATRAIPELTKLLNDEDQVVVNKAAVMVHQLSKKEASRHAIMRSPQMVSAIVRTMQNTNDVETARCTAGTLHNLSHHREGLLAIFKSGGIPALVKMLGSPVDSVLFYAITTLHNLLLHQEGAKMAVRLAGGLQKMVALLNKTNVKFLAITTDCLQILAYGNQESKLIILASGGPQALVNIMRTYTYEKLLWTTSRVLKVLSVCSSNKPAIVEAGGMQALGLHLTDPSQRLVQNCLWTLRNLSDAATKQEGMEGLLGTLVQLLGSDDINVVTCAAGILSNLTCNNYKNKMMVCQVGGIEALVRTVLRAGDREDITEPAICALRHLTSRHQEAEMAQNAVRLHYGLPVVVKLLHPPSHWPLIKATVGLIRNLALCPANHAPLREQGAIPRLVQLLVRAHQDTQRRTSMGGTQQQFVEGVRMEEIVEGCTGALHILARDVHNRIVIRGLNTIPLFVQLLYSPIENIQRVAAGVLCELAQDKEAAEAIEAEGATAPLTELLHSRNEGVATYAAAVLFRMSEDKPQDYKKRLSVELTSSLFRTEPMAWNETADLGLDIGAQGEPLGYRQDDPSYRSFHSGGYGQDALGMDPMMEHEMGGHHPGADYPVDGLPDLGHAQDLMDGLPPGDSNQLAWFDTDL

[3] = molecular target: T3, B-cat-Halo (beta-catenin HaloTag NanoBRET construct expressed in HEK293 cells) (UniProt P35222 1-781); assay: cell-based or functional assay
T3 sequence (looked up): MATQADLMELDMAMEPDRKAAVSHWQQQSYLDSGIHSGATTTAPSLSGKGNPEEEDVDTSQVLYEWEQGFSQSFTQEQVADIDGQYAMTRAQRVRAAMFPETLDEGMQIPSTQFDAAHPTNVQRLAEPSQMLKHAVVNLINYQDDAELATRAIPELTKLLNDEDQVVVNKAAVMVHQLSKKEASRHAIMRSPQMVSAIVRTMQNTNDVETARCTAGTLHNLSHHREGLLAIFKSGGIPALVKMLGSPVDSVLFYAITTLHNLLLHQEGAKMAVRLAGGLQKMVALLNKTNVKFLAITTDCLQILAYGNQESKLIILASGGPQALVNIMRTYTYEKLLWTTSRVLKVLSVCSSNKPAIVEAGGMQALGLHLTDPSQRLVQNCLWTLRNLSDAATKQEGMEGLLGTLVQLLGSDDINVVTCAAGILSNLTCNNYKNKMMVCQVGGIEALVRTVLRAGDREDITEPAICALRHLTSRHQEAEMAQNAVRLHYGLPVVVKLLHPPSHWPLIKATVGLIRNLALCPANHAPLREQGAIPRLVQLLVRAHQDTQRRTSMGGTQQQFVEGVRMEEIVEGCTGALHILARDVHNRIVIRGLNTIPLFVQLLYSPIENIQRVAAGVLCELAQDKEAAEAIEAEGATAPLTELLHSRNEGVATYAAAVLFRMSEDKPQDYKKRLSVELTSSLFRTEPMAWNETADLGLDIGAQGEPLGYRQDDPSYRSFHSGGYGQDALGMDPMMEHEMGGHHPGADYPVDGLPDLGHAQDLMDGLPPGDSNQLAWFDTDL

[4] = molecular target: T4, beta-catenin in DLD1 TCF/LEF luciferase reporter cells (UniProt P35222 1-781); assay: cell-based or functional assay
T4 sequence (looked up): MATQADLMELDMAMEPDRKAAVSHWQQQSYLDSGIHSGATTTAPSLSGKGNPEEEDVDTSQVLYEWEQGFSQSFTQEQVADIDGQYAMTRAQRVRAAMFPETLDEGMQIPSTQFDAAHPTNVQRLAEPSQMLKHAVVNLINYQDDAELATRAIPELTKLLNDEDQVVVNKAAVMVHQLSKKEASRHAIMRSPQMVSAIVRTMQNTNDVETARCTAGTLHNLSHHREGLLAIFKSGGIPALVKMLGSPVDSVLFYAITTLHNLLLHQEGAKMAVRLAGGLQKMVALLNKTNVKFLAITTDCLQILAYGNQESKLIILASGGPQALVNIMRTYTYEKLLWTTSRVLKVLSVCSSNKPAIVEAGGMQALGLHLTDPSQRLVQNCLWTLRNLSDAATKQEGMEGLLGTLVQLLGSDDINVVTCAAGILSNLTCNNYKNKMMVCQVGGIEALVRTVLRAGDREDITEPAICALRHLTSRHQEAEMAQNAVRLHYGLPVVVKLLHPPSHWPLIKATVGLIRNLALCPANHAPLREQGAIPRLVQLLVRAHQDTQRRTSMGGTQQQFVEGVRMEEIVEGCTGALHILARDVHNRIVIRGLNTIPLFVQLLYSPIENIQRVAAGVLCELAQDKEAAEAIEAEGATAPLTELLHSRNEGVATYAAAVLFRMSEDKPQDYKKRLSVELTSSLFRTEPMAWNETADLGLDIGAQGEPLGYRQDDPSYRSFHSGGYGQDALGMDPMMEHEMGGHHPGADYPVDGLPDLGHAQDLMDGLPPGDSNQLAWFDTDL

[5] = molecular target: T5, full-length beta-Catenin (Uniprot ID P35222) (Homo sapiens (Human), UniProt P35222 1-781); assay: fluorescence polarization competition; full-length beta-catenin, competitor 5FAM-TCF4(10-53) probe
T5 construct: The FP protocol says full-length beta-Catenin (Uniprot ID P35222); also called bCat; B-Catenin
T5 sequence: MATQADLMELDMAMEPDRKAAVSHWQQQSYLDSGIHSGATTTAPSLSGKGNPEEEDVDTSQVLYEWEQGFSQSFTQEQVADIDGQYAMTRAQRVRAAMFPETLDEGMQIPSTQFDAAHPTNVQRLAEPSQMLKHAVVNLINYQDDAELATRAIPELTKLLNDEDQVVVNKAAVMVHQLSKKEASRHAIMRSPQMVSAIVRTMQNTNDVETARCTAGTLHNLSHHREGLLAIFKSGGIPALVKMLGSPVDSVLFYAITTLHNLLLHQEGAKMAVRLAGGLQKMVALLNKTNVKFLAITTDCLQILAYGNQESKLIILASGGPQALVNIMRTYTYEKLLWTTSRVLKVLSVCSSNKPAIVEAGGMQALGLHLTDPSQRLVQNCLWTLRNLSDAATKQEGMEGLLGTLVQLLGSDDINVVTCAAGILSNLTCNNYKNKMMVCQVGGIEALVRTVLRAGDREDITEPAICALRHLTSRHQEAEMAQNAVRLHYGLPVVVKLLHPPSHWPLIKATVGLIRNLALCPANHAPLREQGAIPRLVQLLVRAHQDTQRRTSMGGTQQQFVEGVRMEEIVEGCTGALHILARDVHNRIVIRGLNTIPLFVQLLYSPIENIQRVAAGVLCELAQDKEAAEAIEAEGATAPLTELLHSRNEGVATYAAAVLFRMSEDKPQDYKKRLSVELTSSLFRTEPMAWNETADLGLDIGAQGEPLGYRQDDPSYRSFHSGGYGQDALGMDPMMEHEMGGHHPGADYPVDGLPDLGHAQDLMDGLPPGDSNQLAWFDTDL
Method in brief: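 Data fitted to 1:1 binding model with hill slope from duplicate reads taken after 60 minutes at 20° C. in the dark.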

Ac-[αAllylPro]DL[B5(19)]DDAAFL[PyrS2]F[Bta]Q-NH2 (staple 1-4, 4-11) [I-1402]
IC50 [1]: 0.009 µM
IC50 [2]: 27.1 µM

Ac-[αAllylPro]DF[B5(4)]DDAAFS[PyrS2][Phe(2-Cl)][Bta]S-NH2 (staple 1-4, 4-11) [I-1051]
NanoBRET Abs IC50 [3]: > 20 µM
DLD1 reporter assay Abs IC50 [4]: > 20 µM
EC50 [5]: 0.014 µM
